Where no end group is shown, it is not given here.
Experiments:
human P-selectin/IgG-Fc = biological target: T1, human P-selectin/IgG-Fc (Homo sapiens, UniProt P16109); test: Competition assay: displacement of TM11-PO complex from immobilised human P-selectin/IgG-Fc; assay type: binding; conditions: competition with TM11-PO; free peptide; read-out: IC50 (affinity for P-selectin)
T1 construct: purchased R&D Systems Europe Ltd., Abingdon, United Kingdom
Procedure: (§1) TM11-PO, a tetrameric TM11/strepPO complex described by Molenaar et al. (Blood 100: 3570-3577 (2002)), was freshly prepared by incubating streptavidin-peroxidase (Amersham Life Science, Little Chalfont, United Kingdom) (strep-PO; 8.4 μl, 2.0 μM) and biotin-CDVEWVDVSSLEWDLPC (SEQ ID NO: 2; synthesized by Dr. Vander Zee, Department of Immunology, University of Utrecht, Utrecht, the Netherlands) (TM11-biotin; 1.5 μl 190 mM) for 2 hours at room temperature in assay buffer (20 mM HEPES, 150 mM NaCl, 1 mM CaCl2, pH 7.4). For competition studies, a 96 wells microtiter plate (high binding, flat bottom, Costar, Corning, U.S.A) was coated overnight at 4° C. with 10 μg/ml goat anti-human IgG (Sigma-Aldrich, Zwijndrecht, the Netherlands) in coating buffer (50 mM NaHCO3, pH 9.6). Subsequently, wells were washed with assay buffer and incubated for 1 hour at 37° C. with blocking buffer (3% BSA in assay buffer). After washing with assay buffer the wells were incubated for 2 hours at 37° C. with human P-selectin/IgG-Fc (R&D Systems Europe Ltd., Abingdon, United Kingdom) (0.3 μg/ml). Subsequently, wells were washed with assay buffer and incubated for 1 hour at 4° C. with the TM11-PO complex. The wells were washed six times with washing buffer (0.1% Tween 20 in assay buffer). […] The reaction was halted by addition of 2 M H2SO4 and the absorbance was measured at 450 nm.

[1] = biological target: T2, human P-selectin on CHO cells stably transfected with human P-selectin (CHO-P cells) (human, UniProt P16109 42-830); test: cell-based or functional assay
T2 sequence (looked up): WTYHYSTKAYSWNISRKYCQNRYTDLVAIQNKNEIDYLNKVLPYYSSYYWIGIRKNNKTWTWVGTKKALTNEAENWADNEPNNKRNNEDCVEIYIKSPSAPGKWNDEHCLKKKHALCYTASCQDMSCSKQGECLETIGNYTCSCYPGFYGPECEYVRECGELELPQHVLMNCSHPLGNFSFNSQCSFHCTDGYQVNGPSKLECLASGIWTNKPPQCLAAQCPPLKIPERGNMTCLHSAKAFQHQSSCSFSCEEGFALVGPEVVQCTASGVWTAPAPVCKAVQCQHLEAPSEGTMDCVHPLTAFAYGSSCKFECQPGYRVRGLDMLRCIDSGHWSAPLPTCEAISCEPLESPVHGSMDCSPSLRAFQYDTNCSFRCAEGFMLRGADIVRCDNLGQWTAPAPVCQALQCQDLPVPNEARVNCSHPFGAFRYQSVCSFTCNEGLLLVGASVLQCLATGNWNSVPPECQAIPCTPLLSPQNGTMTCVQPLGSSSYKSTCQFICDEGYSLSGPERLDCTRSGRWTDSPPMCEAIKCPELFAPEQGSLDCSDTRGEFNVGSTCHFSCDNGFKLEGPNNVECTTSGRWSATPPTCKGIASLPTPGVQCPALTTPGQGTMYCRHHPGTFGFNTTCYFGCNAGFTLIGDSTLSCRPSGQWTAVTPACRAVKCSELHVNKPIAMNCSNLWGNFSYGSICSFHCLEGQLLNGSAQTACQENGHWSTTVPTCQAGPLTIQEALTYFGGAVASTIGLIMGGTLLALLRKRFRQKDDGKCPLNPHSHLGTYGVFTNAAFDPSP

[2] = biological target: T3, human P-selectin/IgG-Fc (R&D Systems) (human, UniProt P16109 42-771); test: competition ELISA against TM11-PO on captured human P-selectin/IgG-Fc
T3 construct: It was captured on plates coated with goat anti-human IgG; not shown: IgG Fc; it was captured by goat anti-human IgG
T3 sequence (looked up): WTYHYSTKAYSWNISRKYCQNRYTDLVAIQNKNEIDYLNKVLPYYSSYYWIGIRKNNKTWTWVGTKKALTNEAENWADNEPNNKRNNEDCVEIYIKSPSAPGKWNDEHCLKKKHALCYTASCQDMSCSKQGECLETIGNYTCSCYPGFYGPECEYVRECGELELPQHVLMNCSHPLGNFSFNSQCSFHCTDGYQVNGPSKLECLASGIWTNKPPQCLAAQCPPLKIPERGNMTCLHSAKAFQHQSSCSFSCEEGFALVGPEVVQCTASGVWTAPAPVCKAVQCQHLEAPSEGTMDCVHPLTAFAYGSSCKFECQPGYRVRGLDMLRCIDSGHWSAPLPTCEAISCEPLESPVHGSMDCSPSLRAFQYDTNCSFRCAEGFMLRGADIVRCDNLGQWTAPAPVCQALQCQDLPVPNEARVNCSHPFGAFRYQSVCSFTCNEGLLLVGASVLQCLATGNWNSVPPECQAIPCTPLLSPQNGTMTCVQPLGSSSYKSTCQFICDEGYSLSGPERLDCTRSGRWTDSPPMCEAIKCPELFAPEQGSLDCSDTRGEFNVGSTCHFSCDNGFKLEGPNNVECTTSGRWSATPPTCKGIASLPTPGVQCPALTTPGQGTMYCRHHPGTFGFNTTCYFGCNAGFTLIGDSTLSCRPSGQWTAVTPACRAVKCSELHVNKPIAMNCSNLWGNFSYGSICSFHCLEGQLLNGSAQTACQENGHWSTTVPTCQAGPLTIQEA
Procedure: as §1, with “The affinity of the liposomal drug delivery system prepared in example 2 was evaluated using a competition assay. TM11-PO,” for “TM11-PO,”, “biotin-[…]” for “biotin-CDVEWVDVSSLEWDLPC”, “CaCl_2,” for “CaCl2,”, “NaHCO_3,” for “NaHCO3,”, “complex.” for “complex. The wells were washed six times with washing buffer (0.1% Tween 20 in assay buffer).”, “H_2SO_4” for “H2SO4”

[3] = biological target: T4, human P-selectin/IgG-Fc (R&D Systems) (human), P16109; test: as above
T4 chain: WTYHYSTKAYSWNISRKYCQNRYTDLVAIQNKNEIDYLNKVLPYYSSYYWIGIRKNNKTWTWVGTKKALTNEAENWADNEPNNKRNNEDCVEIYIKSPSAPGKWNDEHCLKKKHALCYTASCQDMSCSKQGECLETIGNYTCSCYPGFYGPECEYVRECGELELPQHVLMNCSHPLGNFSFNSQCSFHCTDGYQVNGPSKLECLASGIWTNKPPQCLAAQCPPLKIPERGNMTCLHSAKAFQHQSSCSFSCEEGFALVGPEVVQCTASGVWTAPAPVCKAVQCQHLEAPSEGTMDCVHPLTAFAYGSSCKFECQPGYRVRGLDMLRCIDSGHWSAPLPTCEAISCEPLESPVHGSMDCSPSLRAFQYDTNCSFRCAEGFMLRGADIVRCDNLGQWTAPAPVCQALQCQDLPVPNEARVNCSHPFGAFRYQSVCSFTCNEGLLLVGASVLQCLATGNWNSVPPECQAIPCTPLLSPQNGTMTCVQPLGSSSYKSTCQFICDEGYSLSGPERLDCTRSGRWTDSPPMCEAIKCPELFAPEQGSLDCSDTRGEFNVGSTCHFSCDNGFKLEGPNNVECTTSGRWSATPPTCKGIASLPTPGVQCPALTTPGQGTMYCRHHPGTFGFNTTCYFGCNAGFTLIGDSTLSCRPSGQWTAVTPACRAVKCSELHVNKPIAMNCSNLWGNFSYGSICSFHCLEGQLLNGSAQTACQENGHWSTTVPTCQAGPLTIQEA

T1 sequence (P16109 with tags, fused parts or gaps limits assumed): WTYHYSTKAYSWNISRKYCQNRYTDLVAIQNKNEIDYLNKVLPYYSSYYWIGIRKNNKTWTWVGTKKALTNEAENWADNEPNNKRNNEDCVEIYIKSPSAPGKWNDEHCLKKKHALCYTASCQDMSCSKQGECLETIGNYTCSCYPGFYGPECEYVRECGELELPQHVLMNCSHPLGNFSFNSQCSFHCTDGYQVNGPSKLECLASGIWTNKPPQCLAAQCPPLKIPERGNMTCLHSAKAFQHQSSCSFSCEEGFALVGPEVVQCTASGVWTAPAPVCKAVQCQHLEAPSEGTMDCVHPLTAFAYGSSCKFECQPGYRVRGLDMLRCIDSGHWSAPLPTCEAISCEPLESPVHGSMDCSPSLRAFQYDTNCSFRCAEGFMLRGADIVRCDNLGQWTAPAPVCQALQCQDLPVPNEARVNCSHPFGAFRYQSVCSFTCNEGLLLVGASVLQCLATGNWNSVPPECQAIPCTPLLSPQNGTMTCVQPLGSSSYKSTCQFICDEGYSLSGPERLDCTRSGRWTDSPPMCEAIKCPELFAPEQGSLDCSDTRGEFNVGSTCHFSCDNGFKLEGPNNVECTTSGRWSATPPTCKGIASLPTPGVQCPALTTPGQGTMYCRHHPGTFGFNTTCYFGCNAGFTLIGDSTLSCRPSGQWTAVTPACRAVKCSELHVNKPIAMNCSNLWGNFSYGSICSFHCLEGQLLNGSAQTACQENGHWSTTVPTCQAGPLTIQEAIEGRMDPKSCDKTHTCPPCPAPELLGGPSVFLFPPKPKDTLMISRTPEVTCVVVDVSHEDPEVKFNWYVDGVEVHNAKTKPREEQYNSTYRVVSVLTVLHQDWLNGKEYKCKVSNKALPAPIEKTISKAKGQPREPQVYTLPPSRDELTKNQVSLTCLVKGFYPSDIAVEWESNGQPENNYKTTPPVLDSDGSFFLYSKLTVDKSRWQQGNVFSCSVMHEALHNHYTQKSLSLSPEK

“H-DVEWVDVSY-OH [Pstar, H2N-DVEWVDVSY-COOH]” showed an IC50 (human P-selectin/IgG-Fc) of 7 µM.

B1: P500 liposomes: liposomes carrying 500 DSPE-PEG3400-(125I)-Pstar conjugates per liposome (other)
peptide: DVEWVDVSY
modifications: not fully specified; also: 125I label (ICl method)
notes: About 70 nm EYPC/cholesterol liposome; The peptide-PEG-lipid conjugate is anchored in its surface together with DSPE-PEG2000 (5 mole % in total); also called LP500
B1 was tested, and the “relative transfection (glucocorticoid responsive element-driven Firefly luciferase, corrected by Renilla luciferase) in CHO-P cells” value [1] was 5 fold and the IC50 [2] was 0.34 nM.

B2: human P-selectin binding peptide H2N-…-COOH (Pstar) (peptide)
peptide: DVEWVDVSY
modifications: not checked
Molecule B2 has an IC50 [3] of 7 µM.

B3: P100 liposomes: liposomes carrying 100 DSPE-PEG3400-(125I)-Pstar conjugates per liposome (other)
peptide: DVEWVDVSY
modifications: not fully specified; also: 125I label (ICl method)
notes: About 70 nm EYPC/cholesterol liposome; The peptide-PEG-lipid conjugate is anchored in its surface together with DSPE-PEG2000 (5 mole % in total); also called LP100
In the case of B3, the IC50 [2] is reported as 0.78 nM.

— patent publication US8003596B2, “P-selectin targeting ligand and compositions thereof” (Astellas Pharma Inc., priority 2003, dated 2011)
